The text below walks through data of paper PMC8342987.

Where two headings read alike, the source gives them in different places.

As to SYK: SYK (K375R, K517R), the other entry reads like this: (ubiquitination at K375) “changes”; (ubiquitination at K517) “changes”.

Consider SYK: SYK (Y525F, Y526F), for which the other entry is, setting by setting: (phosphorylation at Y525) “no change”; (phosphorylation at Y526) “no change”.
